Columns and labels:
[1] = target: TAMRA-labeled benzylated H3K9 peptide; assay: fluorescence polarisation
[2] = target: TAMRA-labeled H3K9me3 peptide; assay: fluorescence polarisation
[3] = target: H3K9me2 peptide

## CBX1 chromodomain F50A (from UniProt P83916 20-73) (domain or fragment)
[1]
  Kd: 18.5 µM

## CBX3-F44G mutant (from UniProt Q13185 1-183) (natural protein)
[1]
  Kd: 49 µM
[2]
  Kd: > 1000 µM

## Y26F/F50G-CBX1 chromodomain (from UniProt P83916 22-73) (domain or fragment)
[1]
  Kd: 5.5 µM
[2]
  Kd: 80 µM
[3]
  Kd: > 300 µM

## wild-type CBX3 (from UniProt Q13185 1-183) (natural protein)
[1]
  Kd: > 1000 µM
